For this assay, the target named is NTSR1. The experiment in a line: cell-based or functional assay.

Consider “Neurotensin (NTS) (from UniProt P30990 151-163) (peptide)”, for which the decrease in cell growth (proliferation) of CHO cells overexpressing NTSR1 stood at 60%.
